Assay results: US20250177432A1, “RNA MOLECULES AND COMPOSITIONS FOR CANCER IMMUNOTHERAPY” (WUHAN HOUXIAN BIOPHARMACEUTICAL CO. LTD., priority 2023, published 2025)
“Also recorded” adds a separate entry of the source.

Key:
[1] = test system: CT26 tumor cells; assay: CT26 tumor model, IL-12/OX40L plus additional agent mRNA (Example 4); assay type: in vivo, mice; details: 1.5 μg mRNA in total, days 9 and 12; for effect of adding the agent on the efficacy of the IL-12/OX40L combination: added agent fused to OX40L mRNA through IRES
Experimental: All of these agents were delivered, in various combinations, to the same animal model as used above, as mRNA (1.5 μg in total), on days 9 and 12, post-tumor cell implantation. While IL-12 and OX40L were encoded on different constructs, the added agent (e.g., FADD) was fused to the OX40L mRNA, through an IRES elements.
All the test agents were safe in the animals (FIG. 8).

[2] = Translation of codon optimized OX40L and IL-12 mRNA; assay type: cell-based; details: FIG. 17
Description: Further, codon optimization was applied to the sequences of OX40L and IL-12 mRNA.

| Molecule | anti-tumor effect of the added agent alone [1] | effect of adding the agent on the efficacy of the IL-12/OX40L combination [1] | translation level [2] |
| --- | --- | --- | --- |
| FADD: mRNA encoding FADD (FAS-associated death domain protein) (nucleic acid) AUGGACCCGUUCCUGGUGCUGCUGCACUCGGUGUCGUCCAGCCUGUCGAGCAGCGAGCUGACCGAGCUCAAGUUCCUAUGCCUCGGGCGCGUGGGCAAGCGCAAGCUGGAGCGCGUGCAGAGCGGCCUAGACCUCUUCUCCAUGCUGCUGGAGCAGAACGACCUGGAGCCCGGGCACACCGAGCUCCUGCGCGAGCUGCUCGCCUCCCUGCGGCGCCACGACCUGCUGCGGCGCGUCGACGACUUCGAGGCGGGGGCGGCGGCCGGGGCCGCGCCUGGGGAAGAAGACCUGUGUGCAGCAUUUAACGUCAUAUGUGAUAAUGUGGGGAAAGAUUGGAGAAGGCUGGCUCGUCAGCUCAAAGUCUCAGACACCAAGAUCGACAGCAUCGAGGACAGAUACCCCCGCAACCUGACAGAGCGUGUGCGGGAGUCACUGAGAAUCUGGAAGAACACAGAGAAGGAGAACGCAACAGUGGCCCACCUGGUGGGGGCUCUCAGGUCCUGCCAGAUGAACCUGGUGGCUGACCUGGUACAAGAGGUUCAGCAGGCCCGUGACCUCCAGAACAGGAGUGGGGCCAUGUCCCCGAUGUCAUGGAACUCAGACGCAUCUACCUCCGAAGCGUCCUGA | did not have observable anti-tumor effects | further increased the efficacy of the IL-12/OX12L combination; also recorded: greater than by GSDMD and TNFR | – |
| #8: codon-optimized OX40L mRNA, SEQ ID NO:29 (nucleic acid) AUGGAGAGGGUGCAGCCCCUGGAGGAGAACGUUGGCAACGCCGCGAGGCCCAGGUUCGAGCGCAACAAGCUCCUCCUGGUUGCCAGCGUGAUCCAGGGGCUGGGGCUGCUGUUGUGCUUUACAUACAUUUGUUUGCACUUCAGCGCCCUGCAGGUGUCACACAGGUACCCUCGUAUCCAGAGUAUUAAGGUGCAGUUCACCGAGUACAAGAAGGAGAAGGGCUUCAUCUUGACCUCCCAGAAGGAGGACGAGAUAAUGAAGGUCCAGAACAACUCCGUAAUCAUCAACUGUGACGGAUUUUACCUUAUCAGCUUGAAGGGGUACUUCUCCCAGGAGGUGAACAUCAGCCUCCACUACCAGAAGGACGAGGAGCCCCUUUUCCAGCUGAAGAAGGUGAGAUCCGUCAACAGUCUGAUGGUUGCGAGUCUGACCUACAAGGAUAAGGUGUACCUGAAUGUGACCACCGACAACACCUCUCUCGAUGACUUUCACGUGAACGGGGGCGAGCUGAUUCUGAUCCAUCAGAAUCCCGGCGAGUUCUGCGUUCUGUGA | – | – | relatively lower translation level |
| MLKL: mRNA encoding MLKL (mixed lineage kinase domain like pseudokinase) or its four-helix bundle domain (nucleic acid) AUGGAAAAUUUGAAGCAUAUUAUCACCCUUGGCCAGGUCAUCCACAAACGGUGUGAAGAGAUGAAAUACUGCAAGAAACAGUGCCGGCGCCUGGGCCACCGCGUCCUCGGCCUGAUCAAGCCUCUGGAGAUGCUCCAGGACCAAGGAAAGAGGAGCGUGCCCUCUGAGAAGUUAACCACAGCCAUGAACCGCUUCAAGGCUGCCCUGGAGGAGGCUAAUGGGGAGAUAGAAAAGUUCAGCAAUAGAUCCAAUAUCUGCAGGUUUCUAACAGCAAGCCAGGACAAAAUACUCUUCAAGGACGUGAACAGGAAGCUGAGUGAUGUCUGGAAGGAGCUCUCGCUGUUACUUCAGGUUGAGCAACGCAUGCCUGUUUCACCCAUAAGCCAAGGAGCGUCCUGGGCACAGGAAGAUCAGCAGGAUGCAGACGAAGACAGGCGAGCUUUCCAGAUGCUAAGAAGAGAUAAUGAAAAAAUAGAAGCUUCACUGAGACGAUUAGAAAUCAACAUGAAAGAAAUCAAGGAAACUUUGAGGCAGUAUUUACCACCAAAAUGCAUGCAGGAGAUCCCGCAAGAGCAAAUCAAGGAGAUCAAGAAGGAGCAGCUUUCAGGAUCCCCGUGGAUUCUGCUAAGGGAAAAUGAAGUCAGCACACUUUAUAAAGGAGAAUACCACAGAGCUCCAGUGGCCAUAAAAGUAUUCAAAAAACUCCAGGCUGGCAGCAUUGCAAUAGUGAGGCAGACUUUCAAUAAGGAGAUCAAAACCAUGAAGAAAUUCGAAUCUCCCAACAUCCUGCGUAUAUUUGGGAUUUGCAUUGAUGAAACAGUGACUCCGCCUCAAUUCUCCAUUGUCAUGGAGUACUGUGAACUCGGGACCCUGAGGGAGCUGUUGGAUAGGGAAAAAGACCUCACACUUGGCAAGCGCAUGGUCCUAGUCCUGGGGGCAGCCCGAGGCCUAUACCGGCUACACCAUUCAGAAGCACCUGAACUCCACGGAAAAAUCAGAAGCUCAAACUUCCUGGUAACUCAAGGCUACCAAGUGAAGCUUGCAGGAUUUGAGUUGAGGAAAACACAGACUUCCAUGAGUUUGGGAACUACGAGAGAAAAGACAGACAGAGUCAAAUCUACAGCAUAUCUCUCACCUCAGGAACUGGAAGAUGUAUUUUAUCAAUAUGAUGUAAAGUCUGAAAUAUACAGCUUUGGAAUCGUCCUCUGGGAAAUCGCCACUGGAGAUAUCCCGUUUCAAGGCUGUAAUUCUGAGAAGAUCCGCAAGCUGGUGGCUGUGAAGCGGCAGCAGGAGCCACUGGGUGAAGACUGCCCUUCAGAGCUGCGGGAGAUCAUUGAUGAGUGCCGGGCCCAUGAUCCCUCUGUGCGGCCCUCUGUGGAUGAAAUCUUAAAGAAACUCUCCACCUUUUCUAAGUAG | did not have observable anti-tumor effects | further increased the efficacy of the IL-12/OX12L combination; also recorded: greater than by GSDMD and TNFR | – |
| #10: codon-optimized OX40L mRNA, SEQ ID NO:31 (nucleic acid) AUGGAGCGGGUCCAGCCCCUGGAGGAGAACGUUGGCAACGCAGCGCGGCCCAGGUUCGAGAGGAACAAGCUGCUGCUGGUUGCCAGCGUGAUCCAGGGGCUGGGCCUGCUCCUGUGCUUCACCUACAUCUGCCUGCACUUCAGCGCACUGCAGGUGAGCCACAGGUAUCCCAGGAUACAGAGCAUCAAGGUGCAGUUCACCGAGUACAAGAAGGAGAAGGGCUUCAUCCUCACUUCCCAGAAGGAGGAUGAGAUCAUGAAGGUGCAGAACAACAGCGUGAUCAUCAACUGUGACGGCUUCUACCUGAUCAGCCUGAAGGGGUACUUCAGCCAGGAGGUGAACAUCAGCCUCCACUACCAGAAGGAUGAGGAGCCCCUGUUUCAGCUGAAGAAGGUGAGGUCCGUCAACAGUCUGAUGGUCGCGUCCUUGACCUACAAGGACAAGGUGUACCUGAACGUGACCACCGACAACACCAGCCUGGACGACUUCCAUGUGAACGGCGGUGAGCUGAUCUUGAUUCACCAGAACCCUGGUGAGUUCUGUGUCCUGUGA | – | – | relatively lower translation level |
